{"source": "paper PMC3094755", "about": "“The DNA-Binding Domain of Human PARP-1 Interacts with DNA Single-Strand Breaks as a Monomer through Its Second Zinc Finger”", "binders": {"B1": {"name": "44-nt nicked symmetric dumbbell, 5'-phosphate, 2x fluorescein-dT (structured_DNA)", "DNA": "CGGTCGATCGTAAGATCGACCGCGGTCGATCGTAAGATCGACCG", "modifications": "5'-phosphate"}, "B2": {"name": "ligated (circular) symmetric 44-nt dumbbell, 2x fluorescein-dT (structured_DNA)", "DNA": "B1 DNA", "modifications": "circular, nick sealed by T4 DNA ligase"}, "B3": {"name": "45-nt gapped dumbbell, 5'-phosphate (structured_DNA)", "DNA": "CGGTCGATCGTAAGATCGACCGTGCGCTGGAGCTTGCTCCAGCGC", "modifications": "5'-phosphate"}, "B4": {"name": "45-nt gapped dumbbell, 5'-ribosylated (structured_DNA)", "DNA": "B3 DNA", "modifications": "5'-deoxyribose (printed as 5' ribose in text)"}, "B5": {"name": "45-nt gapped dumbbell, 3'-phosphate (structured_DNA)", "DNA": "B3 DNA", "modifications": "3'-phosphate"}, "B6": {"name": "44-nt nicked dumbbell, 5'-phosphate (structured_DNA)", "DNA": "CGGTCGATCGTAAGATCGACCGGCGCTGGAGCTTGCTCCAGCGC", "modifications": "5'-phosphate"}}, "key": {"[1]": {"molecular_target": "T1, PARP-1 F1+F2 (24-kDa DBD) (Homo sapiens, UniProt P09874 1-214)", "T1 sequence (P09874 1-214)": "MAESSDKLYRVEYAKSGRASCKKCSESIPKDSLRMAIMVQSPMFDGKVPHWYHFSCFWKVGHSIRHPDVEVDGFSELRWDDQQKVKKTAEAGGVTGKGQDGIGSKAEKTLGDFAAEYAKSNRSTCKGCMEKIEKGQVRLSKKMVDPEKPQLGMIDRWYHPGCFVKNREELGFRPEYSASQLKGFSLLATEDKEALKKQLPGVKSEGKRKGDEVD", "assay": "fluorescence anisotropy; 0; 50 mM Tris-HCl pH 7.0, 150 uM ZnSO4, 4 mM DTT, 25 C; NaCl 0-200 mM (T2, as in cof; 10 nM DNA) or 25 mM (T3 mutants; 25 nM DNA)", "conditions": "protein: recombinant, label: fluorescein-dT at T8 and T30, two tetraloops"}, "[2]": {"molecular_target": "T1, PARP-1 F1+F2 (24-kDa DBD)", "assay": "fluorescence anisotropy; 100; 50 mM Tris-HCl pH 7.0, 150 uM ZnSO4, 4 mM DTT, 25 C; NaCl 0-200 mM (T2, as in cof; 10 nM DNA) or 25 mM (T3 mutants; 25 nM DNA)", "conditions": "protein: recombinant, label: fluorescein-dT at T8 and T30, two tetraloops"}, "[3]": {"molecular_target": "T1, PARP-1 F1+F2 (24-kDa DBD)", "assay": "fluorescence anisotropy; 75; 50 mM Tris-HCl pH 7.0, 150 uM ZnSO4, 4 mM DTT, 25 C; NaCl 0-200 mM (T2, as in cof; 10 nM DNA) or 25 mM (T3 mutants; 25 nM DNA)", "conditions": "protein: recombinant, label: fluorescein-dT at T8 and T30, two tetraloops"}, "[4]": {"molecular_target": "T1, PARP-1 F1+F2 (24-kDa DBD)", "assay": "fluorescence anisotropy; 50; 50 mM Tris-HCl pH 7.0, 150 uM ZnSO4, 4 mM DTT, 25 C; NaCl 0-200 mM (T2, as in cof; 10 nM DNA) or 25 mM (T3 mutants; 25 nM DNA)", "conditions": "protein: recombinant, label: fluorescein-dT at T8 and T30, two tetraloops"}, "[5]": {"molecular_target": "T1, PARP-1 F1+F2 (24-kDa DBD)", "assay": "fluorescence anisotropy; 25; 50 mM Tris-HCl pH 7.0, 150 uM ZnSO4, 4 mM DTT, 25 C; NaCl 0-200 mM (T2, as in cof; 10 nM DNA) or 25 mM (T3 mutants; 25 nM DNA)", "conditions": "protein: recombinant, label: fluorescein-dT at T8 and T30, two tetraloops"}, "[6]": {"molecular_target": "T1, PARP-1 F1+F2 (24-kDa DBD)", "assay": "fluorescence anisotropy; 200; 50 mM Tris-HCl pH 7.0, 150 uM ZnSO4, 4 mM DTT, 25 C; NaCl 0-200 mM (T2, as in cof; 10 nM DNA) or 25 mM (T3 mutants; 25 nM DNA)", "conditions": "protein: recombinant; label: fluorescein-dT at T8 and T30; single-chain dumbbell with central nick, two tetraloops"}, "[7]": {"molecular_target": "T1, PARP-1 F1+F2 (24-kDa DBD)", "assay": "fluorescence anisotropy; 150; 50 mM Tris-HCl pH 7.0, 150 uM ZnSO4, 4 mM DTT, 25 C; NaCl 0-200 mM (T2, as in cof; 10 nM DNA) or 25 mM (T3 mutants; 25 nM DNA)", "conditions": "protein: recombinant; label: fluorescein-dT at T8 and T30; single-chain dumbbell with central nick, two tetraloops"}, "[8]": {"molecular_target": "PARP-1 F2 (Homo sapiens, UniProt P09874 103-214)", "sequence (P09874 103-214)": "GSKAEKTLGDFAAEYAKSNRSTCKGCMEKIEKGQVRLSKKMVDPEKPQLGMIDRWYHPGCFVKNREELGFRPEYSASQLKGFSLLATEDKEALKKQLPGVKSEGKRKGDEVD", "assay": "EMSA; 400 nM DNA; slightly less than F1+F2; FA: 50 mM Tris-HCl pH 7, 150 uM ZnSO4, 4 mM DTT, 0-200 mM NaCl, 25 C, 10 nM DNA (mutants 25 nM DNA, 25 mM NaCl); EMSA: 50 mM Tris-HCl pH 7.4, 150 uM ZnSO4, 4 mM DTT, 10% glycerol, RT incubation, gel at 4 C; NMR complexes: 50 mM Tris pH 7.0, 150 uM ZnSO4, 4 mM DTT, 37 C", "conditions": "protein: recombinant; single-chain dumbbell with 1-nt gap, two tetraloops"}, "[9]": {"molecular_target": "T1, PARP-1 F1+F2 (24-kDa DBD)", "assay": "EMSA; 400 nM DNA; FA: 50 mM Tris-HCl pH 7, 150 uM ZnSO4, 4 mM DTT, 0-200 mM NaCl, 25 C, 10 nM DNA (mutants 25 nM DNA, 25 mM NaCl); EMSA: 50 mM Tris-HCl pH 7.4, 150 uM ZnSO4, 4 mM DTT, 10% glycerol, RT incubation, gel at 4 C; NMR complexes: 50 mM Tris pH 7.0, 150 uM ZnSO4, 4 mM DTT, 37 C", "conditions": "protein: recombinant; single-chain dumbbell with 1-nt gap, two tetraloops"}, "[10]": {"molecular_target": "PARP-1 F2 K141I/K142I (Homo sapiens, UniProt P09874 103-214, K141I;K142I)", "sequence (P09874 103-214 K141I/K142I)": "as the sequence (P09874 103-214) above, with K39I, K40I counted along it", "assay": "EMSA; 400 nM DNA; FA: 50 mM Tris-HCl pH 7, 150 uM ZnSO4, 4 mM DTT, 0-200 mM NaCl, 25 C, 10 nM DNA (mutants 25 nM DNA, 25 mM NaCl); EMSA: 50 mM Tris-HCl pH 7.4, 150 uM ZnSO4, 4 mM DTT, 10% glycerol, RT incubation, gel at 4 C; NMR complexes: 50 mM Tris pH 7.0, 150 uM ZnSO4, 4 mM DTT, 37 C", "conditions": "protein: recombinant; single-chain dumbbell with 1-nt gap, two tetraloops"}, "[11]": {"molecular_target": "PARP-1 F2 K131I/G135D (Homo sapiens, UniProt P09874 103-214, K131I;G135D)", "sequence (P09874 103-214 K131I/G135D)": "as the sequence (P09874 103-214) above, with K29I, G33D counted along it", "assay": "EMSA; 400 nM DNA; FA: 50 mM Tris-HCl pH 7, 150 uM ZnSO4, 4 mM DTT, 0-200 mM NaCl, 25 C, 10 nM DNA (mutants 25 nM DNA, 25 mM NaCl); EMSA: 50 mM Tris-HCl pH 7.4, 150 uM ZnSO4, 4 mM DTT, 10% glycerol, RT incubation, gel at 4 C; NMR complexes: 50 mM Tris pH 7.0, 150 uM ZnSO4, 4 mM DTT, 37 C", "conditions": "protein: recombinant; single-chain dumbbell with 1-nt gap, two tetraloops"}, "[12]": {"molecular_target": "PARP-1 F2 R138I (Homo sapiens, UniProt P09874 103-214, R138I)", "sequence (P09874 103-214 R138I)": "as the sequence (P09874 103-214) above, with R36I counted along it", "assay": "EMSA; 400 nM DNA; FA: 50 mM Tris-HCl pH 7, 150 uM ZnSO4, 4 mM DTT, 0-200 mM NaCl, 25 C, 10 nM DNA (mutants 25 nM DNA, 25 mM NaCl); EMSA: 50 mM Tris-HCl pH 7.4, 150 uM ZnSO4, 4 mM DTT, 10% glycerol, RT incubation, gel at 4 C; NMR complexes: 50 mM Tris pH 7.0, 150 uM ZnSO4, 4 mM DTT, 37 C", "conditions": "protein: recombinant; single-chain dumbbell with 1-nt gap, two tetraloops"}, "[13]": {"molecular_target": "T1, PARP-1 F1+F2 (24-kDa DBD)", "assay": "NMR; 1:1 complex; FA: 50 mM Tris-HCl pH 7, 150 uM ZnSO4, 4 mM DTT, 0-200 mM NaCl, 25 C, 10 nM DNA (mutants 25 nM DNA, 25 mM NaCl); EMSA: 50 mM Tris-HCl pH 7.4, 150 uM ZnSO4, 4 mM DTT, 10% glycerol, RT incubation, gel at 4 C; NMR complexes: 50 mM Tris pH 7.0, 150 uM ZnSO4, 4 mM DTT, 37 C", "conditions": "protein: recombinant; single-chain dumbbell with 1-nt gap, two tetraloops"}, "[14]": {"molecular_target": "T1, PARP-1 F1+F2 (24-kDa DBD)", "assay": "EMSA; 400 nM DNA; FA: 50 mM Tris-HCl pH 7, 150 uM ZnSO4, 4 mM DTT, 0-200 mM NaCl, 25 C, 10 nM DNA (mutants 25 nM DNA, 25 mM NaCl); EMSA: 50 mM Tris-HCl pH 7.4, 150 uM ZnSO4, 4 mM DTT, 10% glycerol, RT incubation, gel at 4 C; NMR complexes: 50 mM Tris pH 7.0, 150 uM ZnSO4, 4 mM DTT, 37 C", "conditions": "protein: recombinant; single-chain dumbbell, 18 bp with central nick, two tetraloops"}, "[15]": {"conditions": "single-chain dumbbell with central nick"}, "[16]": {"conditions": "circular closed dumbbell, no nick"}}, "data": [{"binder": "B1", "values": [{"measurement": "Kd", "setting": "[1]; [15]", "value": 48.6, "unit": "nM"}, {"measurement": "Kd", "setting": "[2]; [15]", "value": 56.9, "unit": "nM"}, {"measurement": "Kd", "setting": "[3]; [15]", "value": 62.4, "unit": "nM"}, {"measurement": "Kd", "setting": "[4]; [15]", "value": 56.1, "unit": "nM"}, {"measurement": "Kd", "setting": "[5]; [15]", "value": 54.2, "unit": "nM"}, {"measurement": "Kd", "setting": "[6]", "value": 46.2, "unit": "nM"}, {"measurement": "Kd", "setting": "[7]", "value": 52.4, "unit": "nM"}]}, {"binder": "B2", "values": [{"measurement": "Kd", "setting": "[1]; [16]", "value": 117, "unit": "nM"}, {"measurement": "Kd", "setting": "[2]; [16]", "value": 1110, "unit": "nM"}, {"measurement": "Kd", "setting": "[3]; [16]", "value": 480, "unit": "nM"}, {"measurement": "Kd", "setting": "[4]; [16]", "value": 166, "unit": "nM"}, {"measurement": "Kd", "setting": "[5]; [16]", "value": 134, "unit": "nM"}]}, {"binder": "B3", "values": [{"measurement": "binding result", "setting": "[8]", "value": "binds"}, {"measurement": "binding result", "setting": "[9]", "value": "binds"}, {"measurement": "binding result", "setting": "[10]", "value": "no binding"}, {"measurement": "binding result", "setting": "[11]", "value": "no binding"}, {"measurement": "binding result", "setting": "[12]", "value": "no binding"}]}, {"binder": "B4", "values": [{"measurement": "binding result", "setting": "[13]", "value": "binds"}]}, {"binder": "B5", "values": [{"measurement": "binding result", "setting": "[13]", "value": "binds"}]}, {"binder": "B6", "values": [{"measurement": "binding signal", "setting": "[14]", "value": "~2 fold weaker than gapped ligand"}]}]}
